Results as given in patent publication US7638295B2, “Assays for identifying modulators of the hydroxylation of ankyrin repeat proteins by 2-oxoglutarate dependent oxygenase and methods of using the same” (priority 2004, dated 2009).

How the values were obtained:
FIH [1] = molecular target: T1, FIH (Homo sapiens, UniProt Q9NWT6); assay: FIH assay: decarboxylation of radiolabelled 2OG stimulated by substrate; assay type: biochemical; conditions: for Activity + FIH (relative to synthetic HIF1alphaCAD): ankyrin peptide substrates, CAD standard peptide = 100; for % activity relative to GST HIF-1α 786-826: substrate incubated with FIH, ascorbate, 2OG, Fe, catalase, 50 mM Tris-HCl pH 7.5, 37° C., 20 minutes; for Stimulation of decarboxylation of 2OG by substrate: recombinant FIH (>95% pure) incubated with each peptide
T1 construct: made in house
Method: The peptides shown in Table 1 were tested as potential substrates with purified FIH. The proposed sites of asparaginyl hydroxylation are highlighted in the Table.
In addition p105 ARD and IkappaB-alpha were also assayed as substrates. The substrates were assayed for decarboxylation of 2OG using radiolabelled 2OG as reported in Hewitson et al., J. Biol. Chem. (2002) 277 26351-26355. FIH was incubated with […] of each substrate together with ascorbate, 2OG, Fe and catalase in 50 mM Tris-HCl, pH 7.5 at 37° C. for 20 minutes.
Highly purified (>95% pure) recombinant FIH was incubated individually with each of the p105, IkappaB-alpha and FEM-1 peptides as potential substrates using an assay that measures decarboxylation of 2OG. […] Mutation of the proposed asparaginyl residue to be hydroxylated by FIH in p105 ARD to an alanine residue led to a substantial decrease in 2OG turnover. Incubation of FIH with IkappaB-alpha under standard assay conditions also stimulated turnover to a similar extent as observed for p105 ARD (Table 2).

FIH [2] = molecular target: T1, FIH; assay: LC-MS analysis of peptide substrates after incubation with FIH; assay type: biochemical; conditions: after incubation with FIH under standard assay conditions
Method: A Jupiter C4 HPLC column (15 cm×4.6 mm) was used to purify the substrate peptides following incubation with FIH using a linear gradient of 5-95% acetonitrile/0.05% formic acid at a flow rate of 1 ml/min. The eluate from the column was analysed by a MICROMASS™ ZMD quadrupole mass spectrometer in positive mode.
(§1) To check for direct peptide substrate hydroxylation, assay mixtures with each of the peptide substrates were analysed by both NMR and LC-MS.

[3] = tested on: 2-OG dependent oxygenases; assay: Assays in which 3-fluoro 2-OG replaces 2-OG as co-substrate; assay type: biochemical; conditions: compound replaces 2-OG under analogous conditions
Text: [drawing 5] where each R^1, which are the same or different, is as defined above; R^11 represents OH or R^10NH where R^10 is HO, R^1CO or HOOC(X)x wherein R^11 is as defined above, x is 0 or 1 and X is R^1R^1C wherein each R^1, which are the same or different, is as defined above; or R^10 is an amino acid residue H2N(R^1R^1C)CO— wherein each R^1, which are the same or different, is as defined above; n is 1 or 2 and R^12 is H or straight or branched C1 to C6 alkyl; or a salt thereof. Typically X is CH2 or CHOH. Another aspect of the invention concerns analogues of 2-OG that act as improved (relative to 2-OG) co-substrates for the 2-OG dependent oxygenases. Such a compound is 3-fluoro 2-OG.

2-OG oxygenases = conditions: no test described in this patent; cited from earlier work
FIH [4] = molecular target: T1, FIH; assay: 2D-NMR of peptides after incubation with FIH; assay type: biochemical; conditions: standard assay conditions
Method: Both the FEM-1 and IkappaB-alpha peptides (2 mg) were incubated with FIH under standard assay conditions. Peptides were purified from the assay mixture using a Jupiter C4 HPLC column (15 cm×4.6 mm) with a linear gradient of 5-95% acetonitrile. Peptides were lyophilised and then redissolved in neat ^2H2O containing 1,4-dioxan as the internal chemical shift reference (^1H 3.750, ^13C 67.80 p.p.m.). NMR spectra were obtained using a Bruker Avance DRX500 equipped with an inverse-broadband pulsed-field gradient probe.
as §1

FIH [5] = molecular target: T1, FIH; assay: Tryptic digest and MALDI-TOF mass spectrometry after incubation with FIH; assay type: biochemical; conditions: incubated with FIH under standard assay conditions, then tryptic digestion; linear and reflectron mode
Method: For in-gel digests, gel pieces were incubated with […] in 20 mM ammonium bicarbonate and incubated at 37° C. for 16 hrs. For solution digests, after incubation with FIH under standard assay conditions, a 25 μM sample of substrate was removed from the assay, combined with 2.5 μM trypsin in 25 mM ammonium bicarbonate and incubated at room temperature for 8 hours.
Both in vitro and in vivo produced p105 samples were analysed using an Ettan™ MALDI-ToF Pro mass spectrometer in reflectron mode (Amersham Biosciences) with ANG III and hACTH peptides as internal standards. Tryptic fragments of in vitro produced IkappaB-alpha were analysed using a MALDI-TOF 2T mass spectrometer (MICROMASS™) in reflectron mode using Substance P, hACTH and insulin (B chain, oxidized) calibration standards.
Recombinant IκB-α was incubated with FIH under standard assay conditions followed by tryptic digestion. The resulting tryptic fragments were analysed using both linear and reflectron mode MALDI-TOF mass spectrometry.

T1 sequence (Q9NWT6 whole entry): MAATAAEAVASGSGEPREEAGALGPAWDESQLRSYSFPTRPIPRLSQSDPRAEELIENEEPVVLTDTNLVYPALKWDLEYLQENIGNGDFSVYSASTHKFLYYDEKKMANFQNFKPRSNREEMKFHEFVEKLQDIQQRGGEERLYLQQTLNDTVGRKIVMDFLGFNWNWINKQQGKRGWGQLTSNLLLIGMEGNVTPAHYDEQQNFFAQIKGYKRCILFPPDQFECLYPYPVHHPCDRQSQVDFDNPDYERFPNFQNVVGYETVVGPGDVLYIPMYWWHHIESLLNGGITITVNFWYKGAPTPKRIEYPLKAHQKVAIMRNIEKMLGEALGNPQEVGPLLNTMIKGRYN

Activity + FIH (relative to synthetic HIF1alphaCAD) (FIH [1])	Hydroxylation of peptide observed by LC-MS analysis (FIH [2])	% activity relative to GST HIF-1α 786-826 (FIH [1]) [%]	Molecule	other results
100	Yes	75	CAD: HIF C-terminal transactivation domain standard peptide DESGLPQLTSYDCEVNAPI (SEQ ID NO: 11) (listed as Homo sapiens) [reference compound]	–
107	Yes	–	GABPbeta: fragment of GABPbeta, HASIVEVLLKHGADVNAKDM (SEQ ID NO: 14) (listed as Homo sapiens)	–
116	Yes	–	Gankyrin/p28-II: fragment of Gankyrin/p28-II, RDEIVKALLGKGAQVNAVNQ (SEQ ID NO: 17) (listed as Homo sapiens)	–
–	hydroxylated	111	IkBa 21 mer: fragment of IκB-α, YLGIVELLVSLGADVNAQEPC (SEQ ID NO: 1) (listed as Homo sapiens)	Stimulation of decarboxylation of 2OG by substrate (FIH [1]): roughly equivalent to HIF-1α CAD
122	Yes	–	M110: fragment of M110, YTEVLKLLIQAGYDVNIKDY (SEQ ID NO: 19) (listed as Homo sapiens)	–
154	Yes	–	Myotrophin: fragment of Myotrophin, QLEILEFLLLKGADINAPDK (SEQ ID NO: 18) (listed as Homo sapiens)	–
124	Yes	–	p19-INK-4d: fragment of P19-INK4d, FLDTLKVLVEHGADVNVPDG (SEQ ID NO: 13) (listed as Homo sapiens)	–
–	–	129	GST p105 ARD: ankyrin repeat domain of p105 (residues 537-809) downstream of glutathione S-transferase (protein, left off: a dimerising Fc or GST, ankyrin repeat domain of p105 (residues 537-809) downstream of glutathione S-transferase) AVQDENGDSVLHLAIIHLHSQLVRDLLEVTSGLISDDIINMRNDLYQTPLHLAVITKQEDVVEDLLRAGADLSLLDRLGNSVLHLAAKEGHDKVLSILLKHKKAALLLDHPNGDGLNAIHLAMMSNSLPCLLLLVAAGADVNAQEQKSGRTALHLAVEHDNISLAGCLLLEGDAHVDSTTYDGTTPLHIAAGRGSTRLAALLKAAGADPLVENFEPLYDLDDSWENAGEDEGVVPGTTPLDMATSWQVFDILNGKPYEPEFTSDDLLAQGDM	–

The remaining lines, values behind:

Molecule	Activity + FIH (relative to synthetic HIF1alphaCAD) (FIH [1])	Hydroxylation of peptide observed by LC-MS analysis (FIH [2])	% activity relative to GST HIF-1α 786-826 (FIH [1]) [%]	other results
2-5A-d-R: fragment of 2-5A-d-R, VEVLKILLDEMGADVNACDN (SEQ ID NO: 16) (listed as Homo sapiens)	27.8	Yes	–	–
O=C(O)CC(F)C(=O)C(=O)O (stereo not drawn) [3-fluoro 2-OG, 3-fluoro-2-oxoglutaric acid]	–	–	–	Level of asparagine hydroxylation as co-substrate compared with 2-OG [3]: higher level of asparagine hydroxylation
O=C(O)CC1CC(=O)N(O)C1=O (stereo not drawn) [Is52, (1-hydroxy-2,5-dioxo-pyrrolidin-3-yl) acetic acid]	–	–	–	Activity (in words) (2-OG oxygenases): highly active
FEM-1 21 mer: fragment of FEM-1, NALVTKLLLDCGAEVNAVDNE (SEQ ID NO: 3) (listed as Homo sapiens)	–	hydroxylated	89	Stimulation of decarboxylation of 2OG by substrate (FIH [1]): roughly equivalent to HIF-1α CAD; 2D-NMR spectra of peptide after incubation with FIH (FIH [4]): consistent with asparaginyl hydroxylation
FGIF: fragment of FGIF, NTRVASFLLQHDADINAQTK (SEQ ID NO: 20) (listed as Homo sapiens)	168	Yes	–	–
GST HIF-1α 786-826: glutathione-S-transferase tagged fragment of the HIF transactivation domains (residues 786-826) [reference compound]	–	–	100	–
Tankyrase 1/2: fragment of Tankyrase, NLEVAEYLLEHGADVNAQDK (SEQ ID NO: 15) (listed as Homo sapiens)	107	Yes	–	–
p105 21 mer: fragment of p105, SLPCLLLLVAAGADVNAQEQK (SEQ ID NO: 2) (listed as Homo sapiens)	–	–	100	Stimulation of decarboxylation of 2OG by substrate (FIH [1]): roughly equivalent to HIF-1α CAD; 2D-NMR spectra of peptide after incubation with FIH (FIH [4]): consistent with asparaginyl hydroxylation
p105 ARD: ankyrin repeat domain of p105, amino acid residues 537-809 (SEQ ID NO: 22), GST tag cleaved (protein, listed as Homo sapiens) TAVQDENGDSVLHLAIIHLHSQLVRDLLEVTSGLISDDIINMRNDLYQTPLHLAVITKQEDVVEDLLRAGADLSLLDRLGNSVLHLAAKEGHDKVLSILLKHKKAALLLDHPNGDGLNAIHLAMMSNSLPCLLLLVAAGADVNAQEQKSGRTALHLAVEHDNISLAGCLLLEGDAHVDSTTYDGTTPLHIAAGRGSTRLAALLKAAGADPLVENFEPLYDLDDSWENAGEDEGVVPGTTPLDMATSWQVFDILNGKPYEPEFTSDDLLAQGDM	–	–	164	–
IkappaB-alpha: recombinant IκB-α protein expressed in Escherichia coli from iκB-α/pGEX-2T construct (protein, UniProt P25963 1-317, looked up) NF-kappa-B inhibitor alpha: MFQAAERPQEWAMEGPRDGLKKERLLDDRHDSGLDSMKDEEYEQMVKELQEIRLEPQEVPRGSEPWKQQLTEDGDSFLHLAIIHEEKALTMEVIRQVKGDLAFLNFQNNLQQTPLHLAVITNQPEIAEALLGAGCDPELRDFRGNTPLHLACEQGCLASVGVLTQSCTTPHLHSILKATNYNGHTCLHLASIHGYLGIVELLVSLGADVNAQEPCNGRTALHLAVDLQNPDLVSLLLKCGADVNRVTYQGYSPYQLTWGRPSTRIQQQLGQLTLENLQMLPESEDEESYDTESEFTEFTEDELPYDDCVFGGQRLTL	–	–	144	Hydroxylation of tryptic fragment (MALDI-TOF) (FIH [5]): hydroxylation of the fragment
